Test results: US10472401B2, “Peptides and combination of peptides for use in immunotherapy against ovarian cancer and other cancers” (immatics biotechnologies GmbH, priority 2015, dated 2019)

target: HLA-A*02:01 (Homo sapiens, UniProt P04439, D140Y/D185E/D98H/E176V/E277Q/G131W/G231S/I119V/I121R/I166T/I218V/L300P/L318F/N151K/N90K/P208A/P217A/Q86G/Q94H/R138H/R169H/T345S); experiment: MHC binding assay (UV-ligand exchange, ELISA of stabilized MHC complexes); settings: MHC class I binding score; binding to HLA-A*02:01 ranged by peptide exchange yield (UV-ligand exchange, ELISA)
Outline: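 Binding scored as exchange yield, detected via β2m of stabilized complexes in an HRP/TMB ELISA read at 450 nm after streptavidin capture of 100-fold diluted monomers for 1 h at 37 °C. Complexes came from UV irradiation cleaving a photolabile peptide, exchanged for the candidate.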

Row | Peptide exchange | Substance
1 | ″++++″ (≥75% = ++++) | 177 (YLLPEEYTSTL; listed as Homo sapiens) [compound 177]
2 | ″++++″ (≥75% = ++++) | 62 (VLLDVSAGQLLM; listed as Homo sapiens) [compound 62]
3 | ″+++″ (≥50% = +++) | 508 (ILAQEQLVVGV; listed as Homo sapiens) [compound 508]
4 | ″+++″ (≥50% = +++) | 326 (FLPEALDFV; listed as Homo sapiens) [compound 326]
5 | ″++″ (≥20% = ++) | 381 (FIDEAYVEV; listed as Homo sapiens) [compound 381]
6 | ″++″ (≥20% = ++) | 115 (AIAGAGILYGV; listed as Homo sapiens) [compound 115]
7 | ″+++″ (≥50% = +++) | 117 (ILPDGEDFLAV; listed as Homo sapiens) [compound 117]
8 | ″++″ (≥20% = ++) | 523 (YQIPRTFTL; listed as Homo sapiens) [compound 523]
9 | ″+++″ (≥50% = +++) | 296 (FMEGAIIYV; listed as Homo sapiens) [compound 296]
10 | ″+++″ (≥50% = +++) | 83 (ILAPTVMMI; listed as Homo sapiens) [compound 83]
11 | ″+++″ (≥50% = +++) | 563 (WLLPYNGVTV; listed as Homo sapiens) [compound 563]
12 | ″++++″ (≥75% = ++++) | 611 (YLLDDGTLVV; listed as Homo sapiens) [compound 611]
13 | ″+++″ (≥50% = +++) | 388 (SLTIDGIRYV; listed as Homo sapiens) [compound 388]
14 | ″+++″ (≥50% = +++) | 250 (ALSEEGLLVYL; listed as Homo sapiens) [compound 250]
15 | ″+++″ (≥50% = +++) | 441 (ALLENPKMEL; listed as Homo sapiens) [compound 441]
16 | ″+++″ (≥50% = +++) | 366 (RLLDMGETDLML; listed as Homo sapiens) [compound 366]
17 | ″++″ (≥20% = ++) | 428 (KLGHTDILVGV; listed as Homo sapiens) [compound 428]
18 | ″++″ (≥20% = ++) | 269 (RVLEVGALQAV; listed as Homo sapiens) [compound 269]
19 | ″+++″ (≥50% = +++) | 342 (HIYDKVMTV; listed as Homo sapiens) [compound 342]
20 | ″+++″ (≥50% = +++) | 332 (YLISELEAA; listed as Homo sapiens) [compound 332]
21 | ″+++″ (≥50% = +++) | 525 (VLLEAGEGLVTI; listed as Homo sapiens) [compound 525]
22 | ″+++″ (≥50% = +++) | 507 (KLIDDQDISISL; listed as Homo sapiens) [compound 507]
23 | ″+++″ (≥50% = +++) | 475 (LLLNEEALAQI; listed as Homo sapiens) [compound 475]
24 | ″+++″ (≥50% = +++) | 243 (LLLNELPSV; listed as Homo sapiens) [compound 243]
25 | ″+++″ (≥50% = +++) | 161 (ALLEGVNTV; listed as Homo sapiens) [compound 161]
26 | ″+++″ (≥50% = +++) | 25 (FLPDEPYIKV; listed as Homo sapiens) [compound 25]

Row | Peptide exchange | Substance
27 | ″++″ (≥20% = ++) | 615 (VLPPDTDPA; listed as Homo sapiens) [compound 615]
28 | ″+++″ (≥50% = +++) | 309 (GLFDGVPTTA; listed as Homo sapiens) [compound 309]
29 | ″++″ (≥20% = ++) | 548 (ALWENPESGEL; listed as Homo sapiens) [compound 548]
30 | ″+++″ (≥50% = +++) | 252 (LLIGTDVSL; listed as Homo sapiens) [compound 252]
31 | ″+++″ (≥50% = +++) | 272 (ALGNTVPAV; listed as Homo sapiens) [compound 272]
32 | ″++″ (≥20% = ++) | 566 (VIADGGIQNV; listed as Homo sapiens) [compound 566]
33 | ″+++″ (≥50% = +++) | 599 (YLLNDASLISV; listed as Homo sapiens) [compound 599]
34 | ″+++″ (≥50% = +++) | 598 (FLFPHSVLV; listed as Homo sapiens) [compound 598]
35 | ″+++″ (≥50% = +++) | 606 (ALWETEVYI; listed as Homo sapiens) [compound 606]
36 | ″+++″ (≥50% = +++) | 187 (RQISIRGIVGV; listed as Homo sapiens) [compound 187]
37 | ″+++″ (≥50% = +++) | 569 (KLVDRTWTL; listed as Homo sapiens) [compound 569]
38 | ″+++″ (≥50% = +++) | 496 (FLVEKQPPQV; listed as Homo sapiens) [compound 496]
39 | ″++″ (≥20% = ++) | 253 (GLDAATATV; listed as Homo sapiens) [compound 253]
40 | ″+++″ (≥50% = +++) | 215 (QLINHLHAV; listed as Homo sapiens) [compound 215]
41 | ″+++″ (≥50% = +++) | 471 (YLYNNMIAKI; listed as Homo sapiens) [compound 471]
42 | ″+++″ (≥50% = +++) | 181 (LLWAGTAFQV; listed as Homo sapiens) [compound 181]
43 | ″++++″ (≥75% = ++++) | 438 (KLLPLAGLYL; listed as Homo sapiens) [compound 438]
44 | ″++″ (≥20% = ++) | 432 (TLIEESAKV; listed as Homo sapiens) [compound 432]
45 | ″+++″ (≥50% = +++) | 39 (SVAPNLPAV; listed as Homo sapiens) [compound 39]
46 | ″++″ (≥20% = ++) | 210 (LLLNAVLTV; listed as Homo sapiens) [compound 210]
47 | ″++″ (≥20% = ++) | 270 (LLLDEEGTFSL; listed as Homo sapiens) [compound 270]
48 | ″+++″ (≥50% = +++) | 26 (ALLELAEEL; listed as Homo sapiens) [compound 26]
49 | ″++″ (≥20% = ++) | 403 (KLYDRILRV; listed as Homo sapiens) [compound 403]
50 | ″++″ (≥20% = ++) | 209 (KLIESKHEV; listed as Homo sapiens) [compound 209]
51 | ″+++″ (≥50% = +++) | 369 (GLFPEHLIDV; listed as Homo sapiens) [compound 369]
52 | ″+++″ (≥50% = +++) | 75 (GLLEVMVNL; listed as Homo sapiens) [compound 75]

Row | Peptide exchange | Substance
53 | ″++++″ (≥75% = ++++) | 126 (VLAYFLPEA; listed as Homo sapiens) [compound 126]
54 | ″+++″ (≥50% = +++) | 399 (YLFEPLYHV; listed as Homo sapiens) [compound 399]
55 | ″+++″ (≥50% = +++) | 465 (QLCDLNAEL; listed as Homo sapiens) [compound 465]
56 | ″+++″ (≥50% = +++) | 70 (GLLDYPVGV; listed as Homo sapiens) [compound 70]
57 | ″+++″ (≥50% = +++) | 23 (VLLDDIFAQL; listed as Homo sapiens) [compound 23]
58 | ″++″ (≥20% = ++) | 148 (ALNPEIVSV; listed as Homo sapiens) [compound 148]
59 | ″+++″ (≥50% = +++) | 502 (RLLAQVPGL; listed as Homo sapiens) [compound 502]
60 | ″++″ (≥20% = ++) | 222 (NLIENVQRL; listed as Homo sapiens) [compound 222]
61 | ″+++″ (≥50% = +++) | 163 (ALDEMGDLLQL; listed as Homo sapiens) [compound 163]
62 | ″++″ (≥20% = ++) | 204 (KIAENVEEV; listed as Homo sapiens) [compound 204]
63 | ″+++″ (≥50% = +++) | 562 (YLEELPEKLKL; listed as Homo sapiens) [compound 562]
64 | ″+++″ (≥50% = +++) | 41 (SLMPHIPGL; listed as Homo sapiens) [compound 41]
65 | ″++++″ (≥75% = ++++) | 337 (HLLSELEAAPYL; listed as Homo sapiens) [compound 337]
66 | ″+++″ (≥50% = +++) | 73 (NIFDLQIYV; listed as Homo sapiens) [compound 73]
67 | ″+++″ (≥50% = +++) | 464 (ALNDCIYSV; listed as Homo sapiens) [compound 464]
68 | ″+++″ (≥50% = +++) | 110 (FLSQVDFEL; listed as Homo sapiens) [compound 110]
69 | ″+++″ (≥50% = +++) | 572 (ALADLIEKELSV; listed as Homo sapiens) [compound 572]
70 | ″+++″ (≥50% = +++) | 223 (ALLENIALYL; listed as Homo sapiens) [compound 223]
71 | ″+++″ (≥50% = +++) | 312 (IISDLTIAL; listed as Homo sapiens) [compound 312]
72 | ″+++″ (≥50% = +++) | 164 (ALLPQPKNLTV; listed as Homo sapiens) [compound 164]
73 | ″++″ (≥20% = ++) | 226 (MLYVVPIYL; listed as Homo sapiens) [compound 226]
74 | ″++″ (≥20% = ++) | 63 (YLLPSGGSVTL; listed as Homo sapiens) [compound 63]
75 | ″++″ (≥20% = ++) | 278 (QLLDVVLTI; listed as Homo sapiens) [compound 278]
76 | ″++″ (≥20% = ++) | 145 (FLATSGTLAGI; listed as Homo sapiens) [compound 145]
77 | ″++″ (≥20% = ++) | 389 (LLADVTHLL; listed as Homo sapiens) [compound 389]
